Where a chain is given by its changes, count along the chain named. Numbers in names are those of the source.

T1: high-affinity receptor IL-2Rα/β/γ on CTLL2 cells (mouse-derived cell line) (mouse, UniProt P01590 22-268; P16297 27-539; P34902 23-369)
T1 sequence (looked up) 1: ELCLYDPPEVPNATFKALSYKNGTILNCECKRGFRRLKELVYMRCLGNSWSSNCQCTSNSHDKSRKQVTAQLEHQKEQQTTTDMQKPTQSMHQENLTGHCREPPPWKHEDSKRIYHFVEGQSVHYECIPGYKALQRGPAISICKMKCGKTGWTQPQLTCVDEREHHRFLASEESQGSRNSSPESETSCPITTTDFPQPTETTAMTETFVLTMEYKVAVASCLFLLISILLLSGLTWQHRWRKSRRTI
T1 sequence (looked up) 2: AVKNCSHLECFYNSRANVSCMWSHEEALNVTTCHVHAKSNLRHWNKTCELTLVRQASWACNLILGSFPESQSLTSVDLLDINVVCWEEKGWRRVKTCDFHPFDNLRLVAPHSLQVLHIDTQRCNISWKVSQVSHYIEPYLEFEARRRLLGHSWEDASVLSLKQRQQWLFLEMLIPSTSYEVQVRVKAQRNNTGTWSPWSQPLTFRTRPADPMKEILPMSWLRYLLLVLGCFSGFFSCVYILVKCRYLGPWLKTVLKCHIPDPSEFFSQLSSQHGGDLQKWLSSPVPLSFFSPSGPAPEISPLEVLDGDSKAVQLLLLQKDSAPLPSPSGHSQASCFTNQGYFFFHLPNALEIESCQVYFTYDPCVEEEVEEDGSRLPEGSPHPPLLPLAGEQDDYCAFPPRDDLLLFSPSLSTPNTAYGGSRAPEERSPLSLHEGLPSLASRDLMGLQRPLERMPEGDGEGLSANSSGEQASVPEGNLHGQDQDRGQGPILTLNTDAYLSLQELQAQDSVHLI
T1 sequence (looked up) 3: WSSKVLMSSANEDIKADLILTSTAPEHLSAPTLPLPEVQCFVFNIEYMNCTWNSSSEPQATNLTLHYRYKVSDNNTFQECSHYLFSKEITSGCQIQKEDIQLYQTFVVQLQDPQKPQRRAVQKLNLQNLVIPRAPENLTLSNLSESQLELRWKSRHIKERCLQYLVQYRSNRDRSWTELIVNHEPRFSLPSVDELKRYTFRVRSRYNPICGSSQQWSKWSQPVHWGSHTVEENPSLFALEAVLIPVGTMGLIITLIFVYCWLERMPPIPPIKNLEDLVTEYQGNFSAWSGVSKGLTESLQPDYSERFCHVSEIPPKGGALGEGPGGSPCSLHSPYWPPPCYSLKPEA

T2: his-tagged human IL-2Rα recombinant protein (SinoBiological, Cat #10165-H08H) (human, UniProt P01589 22-213)
T2 construct: Bought protein; also called IL-2Rα (His Tag)
T2 sequence: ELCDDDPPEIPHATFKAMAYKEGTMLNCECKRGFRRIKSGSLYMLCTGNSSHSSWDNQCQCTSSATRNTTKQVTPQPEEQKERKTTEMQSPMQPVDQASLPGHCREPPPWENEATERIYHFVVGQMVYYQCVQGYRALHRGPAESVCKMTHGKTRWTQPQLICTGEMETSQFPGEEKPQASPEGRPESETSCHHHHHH

T3: medium-affinity receptor IL-2Rβ/γ on human cells (Mo7e cell line; human CD8+T and NK cells) (human, UniProt P14784 27-551; P31785 23-369)
T3 sequence (looked up) 1: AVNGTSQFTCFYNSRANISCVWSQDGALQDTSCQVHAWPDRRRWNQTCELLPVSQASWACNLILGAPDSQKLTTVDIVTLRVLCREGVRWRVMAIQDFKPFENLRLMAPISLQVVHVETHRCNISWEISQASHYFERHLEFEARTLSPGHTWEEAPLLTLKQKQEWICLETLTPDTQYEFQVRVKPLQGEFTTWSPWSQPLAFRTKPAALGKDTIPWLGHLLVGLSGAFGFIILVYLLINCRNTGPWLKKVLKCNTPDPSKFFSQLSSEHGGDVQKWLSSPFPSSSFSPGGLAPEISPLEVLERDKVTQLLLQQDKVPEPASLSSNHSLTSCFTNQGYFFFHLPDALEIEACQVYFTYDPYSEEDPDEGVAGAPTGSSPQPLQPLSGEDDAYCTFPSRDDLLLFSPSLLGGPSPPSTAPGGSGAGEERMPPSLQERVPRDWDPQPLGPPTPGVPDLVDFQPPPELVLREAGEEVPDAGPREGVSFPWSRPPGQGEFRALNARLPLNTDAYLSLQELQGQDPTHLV
T3 sequence (looked up) 2: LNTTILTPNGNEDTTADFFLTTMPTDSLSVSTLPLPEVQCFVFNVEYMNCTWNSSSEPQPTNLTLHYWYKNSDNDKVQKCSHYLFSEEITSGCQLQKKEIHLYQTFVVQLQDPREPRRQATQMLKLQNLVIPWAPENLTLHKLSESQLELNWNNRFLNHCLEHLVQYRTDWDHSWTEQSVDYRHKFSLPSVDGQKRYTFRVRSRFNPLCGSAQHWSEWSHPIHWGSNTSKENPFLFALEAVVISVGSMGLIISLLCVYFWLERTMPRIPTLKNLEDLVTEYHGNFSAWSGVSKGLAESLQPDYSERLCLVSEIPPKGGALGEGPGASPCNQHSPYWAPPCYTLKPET

T4: IL-2 receptor IL-2Rα/β/γ on human peripheral blood Treg cells (human, UniProt P01589 22-272; P14784 27-551; P31785 23-369)
T4 sequence (looked up) 1: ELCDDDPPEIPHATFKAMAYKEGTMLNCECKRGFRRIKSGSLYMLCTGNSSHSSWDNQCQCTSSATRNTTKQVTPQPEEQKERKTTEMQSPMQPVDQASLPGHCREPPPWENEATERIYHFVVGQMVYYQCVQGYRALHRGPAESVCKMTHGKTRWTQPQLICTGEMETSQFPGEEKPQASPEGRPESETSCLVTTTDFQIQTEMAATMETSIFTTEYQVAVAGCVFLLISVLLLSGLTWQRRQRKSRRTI
T4 sequence (looked up) 2: T3 sequence (looked up) 1
T4 sequence (looked up) 3: T3 sequence (looked up) 2

B1: IL-2-22 (N26Q/N29S/F42A/N71Q/L72G) (ligand)
chain: MAPTSSSTKKTQLQLEHLLLDLQMILQGISNYKNPKLTRMLTAKFYMPKKATELKHLQCLEEELKPLEEVLQGAQSKNFHLRPRDLISNINVIVLELKGSETTFMCEYADETATIVEFLNRWITFAQSIISTLT
B2: IL-2-10 (N26Q/N30S/F42A/L72G) (ligand)
chain: B1 chain with S30N, N31S, Q72N
notes: The entry already carries the mutations and C125A and begins with M. Made in E. coli
B3: IL-2-03 (Q11C/L132C) (ligand)
chain: B1 chain with Q12C, Q27N, S30N, A43F, Q72N, G73L, L133C
notes: as for B2
B4: IL-2-07 (F42A/Y45A) (ligand)
chain: B1 chain with Q27N, S30N, Y46A, Q72N, G73L
notes: as for B2
B5: IL-2-08 (F42A/L72G) (ligand)
chain: B1 chain with Q27N, S30N, Q72N
notes: as for B2
B6: IL-2-05 (G27C/F78C) (ligand)
chain: B1 chain with Q27N, G28C, S30N, A43F, Q72N, G73L, F79C
notes: as for B2
B7: IL-2-09 (Y45A/L72G) (ligand)
chain: B1 chain with Q27N, S30N, A43F, Y46A, Q72N
notes: as for B2
B8: IL-2-04 (L70C/P82C) (ligand)
chain: B1 chain with Q27N, S30N, A43F, L71C, Q72N, G73L, P83C
notes: as for B2
B9: IL-2-06 (… at positions 29-44 mutated into QSMHIDATL) (ligand)
chain: MAPTSSSTKKTQLQLEHLLLDLQMILNGIQSMHIDATLYMPKKATELKHLQCLEEELKPLEEVLNLAQSKNFHLRPRDLISNINVIVLELKGSETTFMCEYADETATIVEFLNRWITFAQSIISTLT
notes: The entry already carries the replacement and C125A and begins with M. Made in E. coli
B10: PEGylated IL-2-24 (ligand)
chain: B1 chain with A43F, Q72N, G73L, N89R
modifications: mono-PEGylated with 20 kDa mPEG-butyraldehyde (sodium cyanoborohydride); site not stated

In the first test the target is T1, high-affinity receptor IL-2Rα/β/γ on …. Briefly: cell-based or functional assay.
For B1, the “EC50 (CTLL2 cell proliferation)” value turned out to be 5.73 nM and the “relative biological activity (CTLL2 cell proliferation)” value stood at 0.9%.

For the molecule B2, the “EC50 (CTLL2 cell proliferation)” value is 4.8 nM and the “relative biological activity (CTLL2 cell proliferation)” value came to 1%.

In the next test the target is T5, IL-2Rβ/γ-Fc heterodimer (IL-2Rβ-Fc-hole with IL-2Rγ-Fc-knob).
T5 construct: Co-expressed in HEK293 cells and purified with Protein A and Superdex 200
T5 sequence (chain, as listed by the source limits assumed, chain 1 of 2): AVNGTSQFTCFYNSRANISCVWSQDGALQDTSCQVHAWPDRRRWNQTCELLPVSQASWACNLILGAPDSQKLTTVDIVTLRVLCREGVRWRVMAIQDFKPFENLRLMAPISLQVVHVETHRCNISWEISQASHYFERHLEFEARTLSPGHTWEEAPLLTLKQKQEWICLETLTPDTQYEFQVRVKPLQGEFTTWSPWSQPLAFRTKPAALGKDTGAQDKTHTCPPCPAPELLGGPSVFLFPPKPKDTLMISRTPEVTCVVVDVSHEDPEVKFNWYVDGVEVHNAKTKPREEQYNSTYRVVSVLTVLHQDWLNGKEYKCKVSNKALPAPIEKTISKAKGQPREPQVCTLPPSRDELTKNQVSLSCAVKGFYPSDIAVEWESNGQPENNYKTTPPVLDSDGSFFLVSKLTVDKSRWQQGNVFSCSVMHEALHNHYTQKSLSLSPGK
T5 sequence (chain, as listed by the source limits assumed, chain 2 of 2): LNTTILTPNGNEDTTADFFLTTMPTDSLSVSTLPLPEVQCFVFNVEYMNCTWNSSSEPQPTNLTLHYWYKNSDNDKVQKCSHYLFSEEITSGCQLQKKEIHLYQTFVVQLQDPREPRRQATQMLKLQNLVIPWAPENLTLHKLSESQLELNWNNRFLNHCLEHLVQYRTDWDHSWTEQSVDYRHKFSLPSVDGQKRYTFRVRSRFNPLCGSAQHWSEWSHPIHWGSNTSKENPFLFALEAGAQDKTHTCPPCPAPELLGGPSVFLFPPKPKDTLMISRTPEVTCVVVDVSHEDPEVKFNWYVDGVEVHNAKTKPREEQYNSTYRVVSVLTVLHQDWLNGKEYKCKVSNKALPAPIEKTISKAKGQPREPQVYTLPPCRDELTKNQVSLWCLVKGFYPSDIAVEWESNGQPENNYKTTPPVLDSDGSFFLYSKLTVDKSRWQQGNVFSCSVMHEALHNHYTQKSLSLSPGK
Briefly: SPR (Biacore), IL-2Rβ/γ-Fc captured on Protein A chip, 1:1 model. As for the experimental part: The Protein A sensor chip (GE, Cat #29127556) of the Biacore instrument (Biacore T200, GE) was used to capture IL-2Rβ/γ-Fc, wherein IL-2Rβ/γ-Fc was diluted with 1×HBS-EP to 1 μg/mL, and flowed at a flow rate of 10 μL/min for 30 seconds. […] The Biacore instrument (Biacore X100, GE) was used to detect the reaction in real time, to obtain association and dissociation curves. After each cycle of dissociation was completed, the chip was washed and regenerated with 10 mM Gly-HCl pH 1.5.
(Surface plasmon resonance follows binding to a sensor surface in real time, without labels.)
As usually defined, the Kd is the free concentration of one partner at which half of the binding sites on the other are occupied at equilibrium, for simple one-to-one binding. Read a low Kd as higher affinity. In general, koff refers to the first-order rate constant of dissociation. In general, kon refers to the second-order rate constant of association. B3 came in with a Kd of 0.253 nM, a koff of 0.000135 s⁻¹ and a kon of 533000 M⁻¹ s⁻¹.

B2 gave a Kd of 0.266 nM, a koff of 0.00043 s⁻¹ and a kon of 1.62e+06 M⁻¹ s⁻¹.

Regarding B4, the Kd came out at 0.261 nM, the koff was found to be 0.000215 s⁻¹ and the association rate constant (kon) was 822000 M⁻¹ s⁻¹.

Consider B5, for which the Kd is 0.224 nM, the koff worked out at 0.000206 s⁻¹ and the kon was determined as 920000 M⁻¹ s⁻¹.

Consider B6, for which the Kd was 0.288 nM, the off-rate (koff) was found to be 9.68e-05 s⁻¹ and the kon turned out to be 336000 M⁻¹ s⁻¹.

Turning to B7, the Kd came to 0.344 nM, the koff came out at 0.000222 s⁻¹ and the kon was found to be 646000 M⁻¹ s⁻¹.

For the molecule B8, the Kd was found to be 0.302 nM, the koff was 0.00015 s⁻¹ and the kon was 498000 M⁻¹ s⁻¹.

B9: binding was characterised by a dissociation constant (Kd) of 0.509 nM, the koff was 0.000436 s⁻¹ and the association rate constant (kon) came to 856000 M⁻¹ s⁻¹.

For another test, the target named is T2, his-tagged human IL-2Rα recombinant …. Briefly: ELISA, his-tagged IL-2Rα coated, HRP anti-IL-2 polyclonal detection. The method, then: 96-well microtiter plate was coated with 2 μg/mL his-tagged IL-2Rα recombinant protein (SinoBiological, Cat #10165-H08H), and incubated overnight at 4° C. The plate was washed with washing solution for three times, 250 μl per well. For each time of washing, the plate was shaken for 10 seconds to ensure sufficient washing. 200 μl/well blocking solution was added and incubated at room temperature for 2 hours. The plate was washed with washing solution for three times, 250 μl per well. For each time of washing, the plate was shaken for 10 seconds to ensure sufficient washing. […] The plate was incubated for 1 hour at room temperature. The plate was washed with washing solution for three times, 250 μl per well. […] The plate was incubated for 1 hour at room temperature. The plate was washed with washing solution for three times, 250 μl per well. 100 μl TMB was added to each well, and the reaction was performed for 15 minutes in the dark. 50 μl of 0.16 M sulfuric acid was added to each well.
In general, EC50 refers to the concentration at which the effect is half-maximal. With B3, the 50% effective concentration (EC50) came to 1.53 nM.

In the case of B6, the EC50 was 0.6 nM.

Turning to B8, the EC50 was determined as 0.87 nM.

In the next test the target is T3, medium-affinity receptor IL-2Rβ/γ on …. Put plainly: cell-based or functional assay.
As for B1, the “EC50 (Mo7e cell proliferation)” value stood at 2.84 nM and the “relative biological activity (Mo7e cell proliferation)” value came out at 86%.

As for B2, the “EC50 (Mo7e cell proliferation)” value is 1.78 nM and the “relative biological activity (Mo7e cell proliferation)” value came to 137%.

The next test deals with T4, IL-2 receptor IL-2Rα/β/γ on human …. Put plainly: cell-based or functional assay.
Regarding B10, the “EC50 (STAT5 phosphorylation in human Treg cells)” value came out at 6.02 nM and the “relative biological activity (STAT5 phosphorylation in human Treg cells)” value amounted to 0.007%.

In a further test the target is T1, high-affinity receptor IL-2Rα/β/γ on …. Briefly: cell-based or functional assay. This is another data set of the same source.
B4: the “EC50 (STAT5 phosphorylation in CTLL2 cells)” value was found to be 2.45 nM and the “relative biological activity (STAT5 phosphorylation in CTLL2 cells)” value worked out at 0.41%.

Turning to B5, the “EC50 (STAT5 phosphorylation in CTLL2 cells)” value amounted to 3.93 nM and the “relative biological activity (STAT5 phosphorylation in CTLL2 cells)” value is 0.25%.

As for B7, the “EC50 (STAT5 phosphorylation in CTLL2 cells)” value is 4.02 nM and the “relative biological activity (STAT5 phosphorylation in CTLL2 cells)” value stood at 0.25%.

Another test shares this target. Put plainly: cell-based or functional assay. This is another data set of the same source.
For B3, the “relative biological activity (CTLL2 cell proliferation)” value was 162%.

In the case of B4, the “relative biological activity (CTLL2 cell proliferation)” value stood at 4%.

In the case of B5, the “relative biological activity (CTLL2 cell proliferation)” value was determined as 7%.

On to B6, for which the “relative biological activity (CTLL2 cell proliferation)” value was determined as 229%.

Take B7: the “relative biological activity (CTLL2 cell proliferation)” value worked out at 2%.

Regarding B8, the “relative biological activity (CTLL2 cell proliferation)” value came to 176%.

As to B9, the “relative biological activity (CTLL2 cell proliferation)” value came to 4%.

The record behind these values is patent publication US20220056094A1 (JIANGSU HENGRUI MEDICINE, published 2022).
